Data reported in patent publication US12465618B2, “Compositions and methods for degenerative disc regeneration” (University Health Network, priority 2015, dated 2025).

Key:
Type in all cases: cell-based
[1] = tested on: human degenerative disc NP cells; experiment: Caspase 9 Lumi-Glo assay, cytokine induced; details: 48 hrs
Method: Apoptosis induced in NP cells (rat and human) as result of treatment with pro-inflammatory cytokines (IL-1β and TNFα) was determined using Caspase 3/7 and Caspase 9 specific Lumi-Glo assays (Promega, Madison). Briefly, NP cells were plated and treated with either IL-1β alone or in combination with TNFα only or in presence of CTGF and TGFβ1 for 48 hrs, followed by addition of specific reagents for Caspase 3/7 and Caspase 9 as per the manufacturer's instructions. Cells were incubated for another 4 hrs at 37° C., and plates were read in a multi-well luminescence plate reader.

rat NP cells = experiment: Western blotting of rat NP cells treated with IL-1β/TNFα with or without inhibitors or growth factors; details: rat-tail NP cells treated with IL-1β and TNFα, Western blot, FIG. 5g-5h
Method: After euthanasia, healthy rat lumbar/caudal spine IVDs, injured tail discs and bovine caudal IVD NPs were removed aseptically and the nucleus pulposus (NP) was removed separately and enzymatically digested according to methods established by the present inventors^16. Similarly, human degenerative disc NPs were enzymatically digested using Pronase (0.4%, 1 hr at 37° C.) followed by Collagenase II treatment (0.015%, O/N, 37° C.). The following day, the cells were filtered with a 70p cell strainer and cultured within a hypoxic incubator (NuAire, MN, USA) in 3.5% O2, 5% CO2, in Advanced Dulbecco's modified Eagle's medium (ADMEM) supplemented with 8% fetal bovine serum (FBS) and penicillin and streptomycin (100 U/mL). For treatments, the cells were either cultured in serum free ADMEM (no treatment controls) or treated with interleukin-1β (IL-1β, 10 ng/mL), tumor necrosis factor-alpha (TNFα, 50 ng/mL), connective tissue growth factor (CTGF, 10-100 ng/mL), Wnt-inducible soluble protein 2 (WISP2, 10-100 ng/mL) or transforming growth factor beta 1 (TGFβ1, 5-20 ng/mL) for various time points under hypoxic conditions.
Equal amounts of whole cell or tissue lysates prepared using RIPA lysis buffer were subjected to Western blotting as described earlier^18,19. Total lysates (30 μg) were resolved on 10% sodium dodecyl sulphate-polyacrylamide gels (SDS-PAGE) under reducing conditions and then proteins were electro-transferred onto polyvinyledendifluoride (PVDF) membranes (BioRad, CA). After blocking with 5% non-fat powdered milk in Tris-buffered saline (TBS, 0.1 M, pH=7.4), blots were incubated with rabbit or goat polyclonal/mouse monoclonal primary antibodies at 4° C. overnight. […] Blots were washed three times with TTBS for 15 minutes and protein bands were detected by the enhanced chemiluminescence method (BioRad, CA) on Kodak Hyperfilm.

[2] = tested on: human degenerated disc NP cells; experiment: MTT cell viability assay
Method: (§1) Nucleus pulposus cells (rat, bovine and human) were plated in 96-well flat bottom plates in order to evaluate the effect of treatment with growth factors in cell viability and proliferation assays. Rat NP cells were treated with CTGF, WISP-2 and TGFβ1 in a dose (1 ng/mL-100 ng/mL) and time dependent manner (24 hrs-96 hrs) to determine the optimum dose and time for the assessment of these growth factors on viability. Cell viability was determined using 3-(4,5-dimethylthiazol-2-yl)-2,5-diphenyltetrazolium bromide (MTT, Sigma-Aldrich, USA) as previously described^44. A BrdU-ELISA (colorimetric) assay (Cat #ab126556, Abcam) was used for determining the effect of treatment with CTGF or TGFβ1 on human and rat NP cells (healthy/injured) following the manufacturer's instructions. Briefly, NP cells were treated with CTGF or TGFβ1 alone or in combination for 48 hrs following addition of BrdU reagent O/N in each well. Incorporated BrdU in DNA of proliferating cells was determined using anti-BrdU antibody and quantified by ELISA as per the manufacturer's instructions.

[3] = tested on: rat-tail disc NP cells (healthy/injured); experiment: MTT cell viability assay; details: CTGF 100 ng/ml, TGFβ1 10 ng/ml, 48 hrs-72 hrs
Method: as §1

B1: WISP-2: Human recombinant Wnt-inducible soluble protein 2, Peprotech, identified in NCCM (protein, UniProt O76076 24-250, looked up)
CCN family member 5: QLCPTPCTCPWPPPRCPLGVPLVLDGCGCCRVCARRLGEPCDQLHVCDASQGLVCQPGAGPGGRGALCLLAEDDSSCEVNGRLYREGETFQPHCSIRCRCEDGGFTCVPLCSEDVRLPSWDCPHPRRVEVLGKCCPEWVCGQGGGLGTQPLPAQGPQFSGLVSSLPPGVPCPEWSTAWGPCSTTCGLGMATRVSNQNRFCRLETQRRLCLSRPCPPSRGRSPQNSAF
IL-1β and TNFα induced caspase 9 activity [1]: significant reduction
expression of MMP-3, MMP-13 and Cox2 proteins in presence of growth factor (rat NP cells): reduced expression
cell viability (MTT) [2]: no significant change
cell viability (MTT) [3]: no significant change
